Values belong to the binder of their own block, whether it stands above or below them.
Columns and labels:
[1] = molecular target: T1, TROP2 on BxPC-3 and MDA-MB-231-KWL cells (human, UniProt P09758 27-323); experiment: on-cell ELISA, BxPC-3 vs MDA-MB-231-KWL cells
T1 construct: whole, on cells
T1 sequence (looked up): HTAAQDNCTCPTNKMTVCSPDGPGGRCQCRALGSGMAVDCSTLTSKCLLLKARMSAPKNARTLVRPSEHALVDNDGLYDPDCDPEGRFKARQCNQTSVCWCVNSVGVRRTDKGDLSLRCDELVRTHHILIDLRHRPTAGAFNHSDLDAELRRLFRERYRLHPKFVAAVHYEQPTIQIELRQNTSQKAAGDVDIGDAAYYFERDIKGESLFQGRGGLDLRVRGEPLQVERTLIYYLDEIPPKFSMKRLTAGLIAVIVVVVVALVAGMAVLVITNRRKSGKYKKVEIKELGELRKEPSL
Procedure: (§1) Cells were plated in duplicate onto 96-well plates, and primary antibody was diluted in cell culture medium with a starting concentration of 30 μg/mL (200 nM) with a dilution factor of 1:5. […] Data was plotted and analyzed. EC50 ([…]) was measured along with area under the curve (AUC) for each cell line.

[2] = molecular target: T1, TROP2 on BxPC-3 and MDA-MB-231-KWL cells; experiment: on-cell ELISA, MDA-MB-231-KWL cells (TROP2 low); parameters: unit not given beside the values
Procedure: as §1

[3] = molecular target: T1, TROP2 on BxPC-3 and MDA-MB-231-KWL cells; experiment: on-cell ELISA, BxPC-3 cells (TROP2 high); parameters: unit not given beside the values
Procedure: as §1

B1: Sacituzumab (antibody, human IgG1, kappa, V domains shown)
VH: QVQLQQSGSELKKPGASVKVSCKASGYTFTNYGMNWVKQAPGQGLKWMGWINTYTGEPTYTDDFKGRFAFSLDTSVSTAYLQISSLKADDTAVYFCARGGFGSSYWYFDVWGQGSLVTVSS
VL: DIQLTQSPSSLSASVGDRVSITCKASQDVSIAVAWYQQKPGKAPKLLIYSASYRYTGVPDRFSGSGSGTDFTLTISSLQPEDFAVYYCQQHYITPLTFGAGTKVEIKR
notes: also called mAb (parental)
ΔAUC [1]: 70.1 | AUC (MDA-MB-231-KWL) [2]: 248 | AUC (BxPC-3) [3]: 318

B5: mAb_LC_Hm_F108S (antibody, human IgG1, kappa)
heavy: not shown
light: DIQLTQSPSSLSASVGDRVSITCKASQDVSIAVAWYQQKPGKAPKLLIYSASYRYTGVPDRFSGSGSGTDFTLTISSLQPEDFAVYYCQQHYITPLTFGAGTKVEIKRTVAAPSVFIFPPSDEQLKSGTASVVCLLNNFYPREAKVQWKVDNALQSGNSQESVTEQDSKDSTYSLSSTLTLSKADYEKHKVYACEVTHQGLSSPVTKSFNRGEC
ΔAUC [1]: 76.1 | AUC (MDA-MB-231-KWL) [2]: 227 | AUC (BxPC-3) [3]: 303

B6: mAb_LC_Hm_F108Q (antibody, human IgG1, kappa)
heavy: not shown
light: DIQLTQSPSSLSASVGDRVSITCKASQDVSIAVAWYQQKPGKAPKLLIYSASYRYTGVPDRFSGSGSGTDFTLTISSLQPEDFAVYYCQQHYITPLTFGAGTKVEIKRTVAAPSVFIFPPSDEQLKSGTASVVCLLNNFYPREAKVQWKVDNALQSGNSQESVTEQDSKDSTYSLSSTLTLSKADYEKHKVYACEVTHQGLSSPVTKSFNRGEC
ΔAUC [1]: 94.9 | AUC (MDA-MB-231-KWL) [2]: 230 | AUC (BxPC-3) [3]: 324

B7: mAb_LC_Hm_G33I (antibody, human IgG1, kappa)
heavy: not shown
light: DIQLTQSPSSLSASVGDRVSITCKASQDVSIAVAWYQQKPGKAPKLLIYSASYRYTGVPDRFSGSGSGTDFTLTISSLQPEDFAVYYCQQHYITPLTFGAGTKVEIKRTVAAPSVFIFPPSDEQLKSGTASVVCLLNNFYPREAKVQWKVDNALQSGNSQESVTEQDSKDSTYSLSSTLTLSKADYEKHKVYACEVTHQGLSSPVTKSFNRGEC
ΔAUC [1]: 156 | AUC (MDA-MB-231-KWL) [2]: 129 | AUC (BxPC-3) [3]: 286

B8: mAb_LC_Hm_G33P (antibody, human IgG1, kappa)
heavy: not shown
light: DIQLTQSPSSLSASVGDRVSITCKASQDVSIAVAWYQQKPGKAPKLLIYSASYRYTGVPDRFSGSGSGTDFTLTISSLQPEDFAVYYCQQHYITPLTFGAGTKVEIKRTVAAPSVFIFPPSDEQLKSGTASVVCLLNNFYPREAKVQWKVDNALQSGNSQESVTEQDSKDSTYSLSSTLTLSKADYEKHKVYACEVTHQGLSSPVTKSFNRGEC
ΔAUC [1]: 134 | AUC (MDA-MB-231-KWL) [2]: 7.7 | AUC (BxPC-3) [3]: 142

B10: mAb_LC_Hm_N31P (antibody, human IgG1, kappa)
heavy: not shown
light: DIQLTQSPSSLSASVGDRVSITCKASQDVSIAVAWYQQKPGKAPKLLIYSASYRYTGVPDRFSGSGSGTDFTLTISSLQPEDFAVYYCQQHYITPLTFGAGTKVEIKRTVAAPSVFIFPPSDEQLKSGTASVVCLLNNFYPREAKVQWKVDNALQSGNSQESVTEQDSKDSTYSLSSTLTLSKADYEKHKVYACEVTHQGLSSPVTKSFNRGEC
ΔAUC [1]: 116 | AUC (MDA-MB-231-KWL) [2]: 173 | AUC (BxPC-3) [3]: 289

B11: mAb_LC_Hm_F101E (antibody, human IgG1, kappa)
heavy: not shown
light: DIQLTQSPSSLSASVGDRVSITCKASQDVSIAVAWYQQKPGKAPKLLIYSASYRYTGVPDRFSGSGSGTDFTLTISSLQPEDFAVYYCQQHYITPLTFGAGTKVEIKRTVAAPSVFIFPPSDEQLKSGTASVVCLLNNFYPREAKVQWKVDNALQSGNSQESVTEQDSKDSTYSLSSTLTLSKADYEKHKVYACEVTHQGLSSPVTKSFNRGEC
ΔAUC [1]: 142 | AUC (MDA-MB-231-KWL) [2]: 158 | AUC (BxPC-3) [3]: 300

B13: mAb_LC_Hm_F29G (antibody, human IgG1, kappa)
heavy: not shown
light: DIQLTQSPSSLSASVGDRVSITCKASQDVSIAVAWYQQKPGKAPKLLIYSASYRYTGVPDRFSGSGSGTDFTLTISSLQPEDFAVYYCQQHYITPLTFGAGTKVEIKRTVAAPSVFIFPPSDEQLKSGTASVVCLLNNFYPREAKVQWKVDNALQSGNSQESVTEQDSKDSTYSLSSTLTLSKADYEKHKVYACEVTHQGLSSPVTKSFNRGEC
ΔAUC [1]: 71.9 | AUC (MDA-MB-231-KWL) [2]: 219 | AUC (BxPC-3) [3]: 291

B15: mAb_LC_Hm_F101T (antibody, human IgG1, kappa)
heavy: not shown
light: DIQLTQSPSSLSASVGDRVSITCKASQDVSIAVAWYQQKPGKAPKLLIYSASYRYTGVPDRFSGSGSGTDFTLTISSLQPEDFAVYYCQQHYITPLTFGAGTKVEIKRTVAAPSVFIFPPSDEQLKSGTASVVCLLNNFYPREAKVQWKVDNALQSGNSQESVTEQDSKDSTYSLSSTLTLSKADYEKHKVYACEVTHQGLSSPVTKSFNRGEC
ΔAUC [1]: 93.1 | AUC (MDA-MB-231-KWL) [2]: 221 | AUC (BxPC-3) [3]: 314

B16: mAb_LC_Hm_F108T (antibody, human IgG1, kappa)
heavy: not shown
light: DIQLTQSPSSLSASVGDRVSITCKASQDVSIAVAWYQQKPGKAPKLLIYSASYRYTGVPDRFSGSGSGTDFTLTISSLQPEDFAVYYCQQHYITPLTFGAGTKVEIKRTVAAPSVFIFPPSDEQLKSGTASVVCLLNNFYPREAKVQWKVDNALQSGNSQESVTEQDSKDSTYSLSSTLTLSKADYEKHKVYACEVTHQGLSSPVTKSFNRGEC
ΔAUC [1]: 71.4 | AUC (MDA-MB-231-KWL) [2]: 207 | AUC (BxPC-3) [3]: 278

B18: mAb_LC_Hm_G33S (antibody, human IgG1, kappa)
heavy: not shown
light: DIQLTQSPSSLSASVGDRVSITCKASQDVSIAVAWYQQKPGKAPKLLIYSASYRYTGVPDRFSGSGSGTDFTLTISSLQPEDFAVYYCQQHYITPLTFGAGTKVEIKRTVAAPSVFIFPPSDEQLKSGTASVVCLLNNFYPREAKVQWKVDNALQSGNSQESVTEQDSKDSTYSLSSTLTLSKADYEKHKVYACEVTHQGLSSPVTKSFNRGEC
ΔAUC [1]: 144 | AUC (MDA-MB-231-KWL) [2]: 137 | AUC (BxPC-3) [3]: 281

The next lines start with the values.

ΔAUC [1]: 186 | AUC (MDA-MB-231-KWL) [2]: 28.7 | AUC (BxPC-3) [3]: 215
B2: mAb_LC_Hm_W106A (antibody, human IgG1, kappa)
heavy: not shown
light: DIQLTQSPSSLSASVGDRVSITCKASQDVSIAVAWYQQKPGKAPKLLIYSASYRYTGVPDRFSGSGSGTDFTLTISSLQPEDFAVYYCQQHYITPLTFGAGTKVEIKRTVAAPSVFIFPPSDEQLKSGTASVVCLLNNFYPREAKVQWKVDNALQSGNSQESVTEQDSKDSTYSLSSTLTLSKADYEKHKVYACEVTHQGLSSPVTKSFNRGEC

ΔAUC [1]: 143 | AUC (BxPC-3) [3]: 323
B3: mAb_Lm_Y53R_HC (antibody, human IgG1, kappa)
heavy: not shown
light: DIQLTQSPSSLSASVGDRVSITCKASQDVSIAVAWYQQKPGKAPKLLIYSASRRYTGVPDRFSGSGSGTDFTLTISSLQPEDFAVYYCQQHYITPLTFGAGTKVEIKRTVAAPSVFIFPPSDEQLKSGTASVVCLLNNFYPREAKVQWKVDNALQSGNSQESVTEQDSKDSTYSLSSTLTLSKADYEKHKVYACEVTHQGLSSPVTKSFNRGEC

ΔAUC [1]: 80.5 | AUC (BxPC-3) [3]: 291
B4: mAb_Lm_V29R_HC (antibody, human IgG1, kappa)
heavy: not shown
light: DIQLTQSPSSLSASVGDRVSITCKASQDRSIAVAWYQQKPGKAPKLLIYSASYRYTGVPDRFSGSGSGTDFTLTISSLQPEDFAVYYCQQHYITPLTFGAGTKVEIKRTVAAPSVFIFPPSDEQLKSGTASVVCLLNNFYPREAKVQWKVDNALQSGNSQESVTEQDSKDSTYSLSSTLTLSKADYEKHKVYACEVTHQGLSSPVTKSFNRGEC

ΔAUC [1]: 134 | AUC (BxPC-3) [3]: 304
B9: mAb_Lm_Y53P_HC (antibody, human IgG1, kappa)
heavy: not shown
light: DIQLTQSPSSLSASVGDRVSITCKASQDVSIAVAWYQQKPGKAPKLLIYSASPRYTGVPDRFSGSGSGTDFTLTISSLQPEDFAVYYCQQHYITPLTFGAGTKVEIKRTVAAPSVFIFPPSDEQLKSGTASVVCLLNNFYPREAKVQWKVDNALQSGNSQESVTEQDSKDSTYSLSSTLTLSKADYEKHKVYACEVTHQGLSSPVTKSFNRGEC
notes: built from the Sacituzumab light chain with the named substitution

ΔAUC [1]: 178 | AUC (BxPC-3) [3]: 285
B12: mAb_LC_Hm_S104D (antibody, human IgG1, kappa)
heavy: not shown
light: DIQLTQSPSSLSASVGDRVSITCKASQDVSIAVAWYQQKPGKAPKLLIYSASYRYTGVPDRFSGSGSGTDFTLTISSLQPEDFAVYYCQQHYITPLTFGAGTKVEIKRTVAAPSVFIFPPSDEQLKSGTASVVCLLNNFYPREAKVQWKVDNALQSGNSQESVTEQDSKDSTYSLSSTLTLSKADYEKHKVYACEVTHQGLSSPVTKSFNRGEC

AUC (MDA-MB-231-KWL) [2]: 16.9 | AUC (BxPC-3) [3]: 184
B14: mAb_Lm_H91Y_HC (antibody, human IgG1, kappa)
heavy: not shown
light: DIQLTQSPSSLSASVGDRVSITCKASQDVSIAVAWYQQKPGKAPKLLIYSASYRYTGVPDRFSGSGSGTDFTLTISSLQPEDFAVYYCQQYYITPLTFGAGTKVEIKRTVAAPSVFIFPPSDEQLKSGTASVVCLLNNFYPREAKVQWKVDNALQSGNSQESVTEQDSKDSTYSLSSTLTLSKADYEKHKVYACEVTHQGLSSPVTKSFNRGEC

ΔAUC [1]: 181 | AUC (BxPC-3) [3]: 226
B17: mAb_Lm_Y92N_HC (antibody, human IgG1, kappa)
heavy: not shown
light: DIQLTQSPSSLSASVGDRVSITCKASQDVSIAVAWYQQKPGKAPKLLIYSASYRYTGVPDRFSGSGSGTDFTLTISSLQPEDFAVYYCQQHNITPLTFGAGTKVEIKRTVAAPSVFIFPPSDEQLKSGTASVVCLLNNFYPREAKVQWKVDNALQSGNSQESVTEQDSKDSTYSLSSTLTLSKADYEKHKVYACEVTHQGLSSPVTKSFNRGEC
